Source: patent US20140212432A1 (University of California, published 2014)

T1: HGFA (UniProt Q04756 373-655, limits assumed)
T1 sequence (looked up): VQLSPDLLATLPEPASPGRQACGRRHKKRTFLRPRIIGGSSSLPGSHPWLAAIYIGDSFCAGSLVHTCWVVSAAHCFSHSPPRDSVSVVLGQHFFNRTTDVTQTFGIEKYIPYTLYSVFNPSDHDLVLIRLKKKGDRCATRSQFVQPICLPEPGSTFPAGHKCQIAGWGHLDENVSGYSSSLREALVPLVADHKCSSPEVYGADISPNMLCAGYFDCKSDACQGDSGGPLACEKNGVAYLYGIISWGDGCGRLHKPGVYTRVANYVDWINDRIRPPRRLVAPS

T2: MT-SP1 (UniProt Q9Y5Y6 615-855, limits assumed)
T2 sequence (looked up): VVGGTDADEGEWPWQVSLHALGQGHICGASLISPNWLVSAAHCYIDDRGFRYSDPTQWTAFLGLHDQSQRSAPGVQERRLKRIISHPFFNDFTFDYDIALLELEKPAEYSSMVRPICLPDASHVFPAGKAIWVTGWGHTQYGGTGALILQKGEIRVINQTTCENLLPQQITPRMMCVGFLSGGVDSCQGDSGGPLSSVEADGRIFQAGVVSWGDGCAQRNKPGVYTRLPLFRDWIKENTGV

B1: U33 Fab (Fab, V domains shown)
VH: EVQLVQSGGGLVKPGRSLRLSCTASGFTFGDYAMSWVRQAPGKGLEWVGFIRSKAYGGTTEYAAVKGRFTISRDDSKSIAYLQMNSLKTEDTAVYYCIRGANWNWGQGTLVTVSS
VL: EIVLTQSPLSLPVTPGEPASISCRSSQTLMNRNGNNFLDWYLQKPGQSPQLLIYLGSNRAPGVPDRFSGSGSGTDFTLKISRVEAEDVGVYYCMQRIEFPYTFGQGTKLEIKR
notes: Human Fab from a naive B cell phage display library; also called clone U33; Fab U33
B2: U33 IgG (antibody, V domains shown)
VH: B1 VH
VL: B1 VL
notes: U33 Fab converted to full length IgG; It was detected with an anti-human Fc secondary; The internalisation study used the 111In-DOTA labelled form; also called full length IgG; 111In-U33 IgG

Experiments:
[1] = molecular target: T3, active human urokinase-type plasminogen activator (uPA) (human, UniProt P00749 21-177; P00749 179-431); assay: steady-state enzyme inhibition of soluble uPA
mouse uPA [2] = molecular target: T4, mouse uPA (mouse, UniProt P06869 21-433, limits assumed); assay: quantitative ELISA, uPA-coated plates
T4 construct: The construct is not described; It was active-site titrated in the IgG ELISA, so it was an active form; also called mouse enzyme
T4 sequence (P06869 21-433 limits assumed): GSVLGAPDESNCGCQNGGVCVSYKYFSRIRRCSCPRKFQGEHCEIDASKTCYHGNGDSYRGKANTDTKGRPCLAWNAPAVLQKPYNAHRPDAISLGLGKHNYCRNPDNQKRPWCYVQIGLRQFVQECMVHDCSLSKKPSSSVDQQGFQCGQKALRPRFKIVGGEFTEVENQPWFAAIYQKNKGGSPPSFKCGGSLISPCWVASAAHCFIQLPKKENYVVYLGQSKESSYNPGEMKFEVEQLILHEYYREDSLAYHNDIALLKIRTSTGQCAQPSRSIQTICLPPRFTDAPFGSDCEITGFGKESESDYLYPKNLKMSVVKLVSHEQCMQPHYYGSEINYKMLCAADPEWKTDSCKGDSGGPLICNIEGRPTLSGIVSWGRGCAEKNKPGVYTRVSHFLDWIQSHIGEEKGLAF
Description: (§1) Serial dilutions of pure U33 were added to uPA coated plates and incubated for 1 hour. The amount of Fab bound to uPA was determined by ELISA. U33 Fab was detected only in wells coated with human active uPA. Panel B depicts inhibition of human uPA by U33. The proteolytic activity of human or mouse uPA was read in absence and presence of 1 μM of U33. The enzyme activity is expressed as percentage of the uPA activity in absence of Fab (100%). […] Serial dilutions of U33-Fab were added to uPAR-uPA coated plates and incubated for 1 hour and the activity of uPA was read. Panel D depicts prevention of uPA binding to PAI-1 coated plates by U33. Serial dilutions of pure U33 (4 μM to 31.2 nM) were pre-incubated overnight with uPA and added to PAI-1 coated plates. The amount of uPA bound to PAI was determined by ELISA. […] Serial dilutions of U33 were added to a uPA-coated plate pre-incubated with and without 1 μM CMK. The amount of U33 Fab bound to uPA was determined by ELISA.
(§2) The affinity and specificity of the U33 Fab was determined using quantitative ELISA as well as inhibition assays with human uPA (active and zymogen) and mouse uPA.

[3] = molecular target: T5, human pro-uPA (zymogen uPA) (human, UniProt P00749 21-431); assay: quantitative ELISA, uPA-coated plates
T5 construct: mature
Description: as §1, §2

uPA-PAI-1 complex [4] = molecular target: T6, uPA-PAI-1 complex (human, UniProt P00749 21-177; P00749 179-431; P05121 24-402); assay: binding of U33 Fab to uPA pre-incubated with PAI-1
[5] = molecular target: T5, human pro-uPA (zymogen uPA); assay: ELISA, plate coated with pro-uPA
Description: (§3) ELISA assays were performed to further assess the selectivity of U33 IgG for uPA compared to highly related serine proteases. All proteases were active site-titrated to ensure that identical concentrations of active protease were adsorbed to the ELISA plate. After blocking, increasing concentrations of U33 IgG were incubated for 1 hour at RT. Unbound U33 IgG was removed by washing and bound U33 IgG was detected with an anti-human Fc-HRP secondary. 50 μL at of 2.8 nM active protease in coating buffer were added to each well in a Nunc Maxisorb ELISA plate and incubated 0/N at 4° C. Unbound protease was removed by hand washing wells 3× with wash buffer. Wells were incubated in 200 μL of Block Solution per well for 2 h at RT. Block Solution was removed by hand washing wells 3× with wash buffer. 50 μL of U33 IgG in Block Solution was added for 1 h at RT. The highest U33 IgG concentration was 651 nM, and was decreased in two-fold increments to 5.1 nM. Unbound U33 IgG was removed by hand washing wells 6× with wash buffer. 50 μL of 1:2000 dilution of secondary antibody in Block Solution was added for 1 h at RT. Unbound secondary antibody was removed by hand washing wells 6× with wash buffer. 100 μL of 1-step Ultra TMB-ELISA was added and then quenched with 100 μL of 1 M HCl. Signal was quantified by measuring A₄₅₀ on plate reader. […]

uPA-PAI-1 complex [6] = molecular target: T6, uPA-PAI-1 complex; assay: ELISA, uPA-coated plate pre-treated with PAI-1 (133 nM to 8.3 nM)
Description: as §3

[7] = molecular target: T3, active human urokinase-type plasminogen …; assay: enzyme inhibition of uPA
mouse uPA [8] = molecular target: T4, mouse uPA; assay: ELISA, protease-coated plate, anti-human Fc-HRP detection
Description: (§4) ELISA assays were performed to further assess the selectivity of U33 IgG for uPA compared to highly related serine proteases. All proteases were active site-titrated to ensure that identical concentrations of active protease were adsorbed to the ELISA plate. After blocking, increasing concentrations of U33 IgG were incubated for 1 hour at RT. Unbound U33 IgG was removed by washing and bound U33 IgG was detected with an anti-human Fc-HRP secondary. 50 μL at of 2.8 nM active protease in coating buffer were added to each well in a Nunc Maxisorb ELISA plate and incubated 0/N at 4° C. Unbound protease was removed by hand washing wells 3× with wash buffer. Wells were incubated in 200 μL of Block Solution per well for 2 h at RT. Block Solution was removed by hand washing wells 3× with wash buffer. 50 μL of U33 IgG in Block Solution was added for 1 h at RT. The highest U33 IgG concentration was 651 nM, and was decreased in two-fold increments to 5.1 nM. Unbound U33 IgG was removed by hand washing wells 6× with wash buffer. 50 μL of 1:2000 dilution of secondary antibody in Block Solution was added for 1 h at RT. Unbound secondary antibody was removed by hand washing wells 6× with wash buffer. 100 μL of 1-step Ultra TMB-ELISA was added and then quenched with 100 μL of 1 M HCl. Signal was quantified by measuring A₄₅₀ on plate reader. Results for U33 binding to uPA, thrombin, HGFA, hepsin, chymotrypsin and trypsin are shown in FIG. 4, panel A. Results for U33 binding to uPA, MT-SP1 and plasmin are shown in FIG. 4, panel B. Results for U33 binding to uPA and tPA are shown in FIG. 4, panel C. […] Therefore U33 IgG can discriminate between proteases with identical catalytic mechanisms and similar protein folds.

HGFA = molecular target: T1, HGFA; assay: as above
Description: as §4

plasmin = plasmin (UniProt P00747 97-810, limits assumed); assay: as above
plasmin, sequence (P00747 97-810 limits assumed): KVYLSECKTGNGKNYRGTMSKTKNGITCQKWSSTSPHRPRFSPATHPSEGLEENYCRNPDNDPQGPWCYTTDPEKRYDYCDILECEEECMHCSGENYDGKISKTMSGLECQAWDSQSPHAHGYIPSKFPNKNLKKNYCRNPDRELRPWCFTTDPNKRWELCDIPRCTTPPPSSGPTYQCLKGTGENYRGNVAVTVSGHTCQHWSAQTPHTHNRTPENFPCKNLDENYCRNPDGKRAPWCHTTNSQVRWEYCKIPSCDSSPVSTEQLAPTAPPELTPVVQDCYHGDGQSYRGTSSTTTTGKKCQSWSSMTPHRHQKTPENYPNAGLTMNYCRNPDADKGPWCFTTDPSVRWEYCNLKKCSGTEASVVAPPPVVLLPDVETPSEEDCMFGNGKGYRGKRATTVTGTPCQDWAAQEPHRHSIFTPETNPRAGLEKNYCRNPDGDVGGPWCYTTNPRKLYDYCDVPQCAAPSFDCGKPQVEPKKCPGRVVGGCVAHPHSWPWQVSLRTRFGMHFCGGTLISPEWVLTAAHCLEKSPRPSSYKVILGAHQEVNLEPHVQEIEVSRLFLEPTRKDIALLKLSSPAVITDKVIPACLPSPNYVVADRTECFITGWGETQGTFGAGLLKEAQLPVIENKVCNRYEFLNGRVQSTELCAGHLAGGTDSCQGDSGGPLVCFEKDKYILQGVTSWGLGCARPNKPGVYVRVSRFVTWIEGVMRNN
Description: as §4

MT-SP1 = molecular target: T2, MT-SP1; assay: as above
Description: as §4

hepsin = hepsin (UniProt P05981 45-417, limits assumed); assay: as above
hepsin, sequence (P05981 45-417 limits assumed): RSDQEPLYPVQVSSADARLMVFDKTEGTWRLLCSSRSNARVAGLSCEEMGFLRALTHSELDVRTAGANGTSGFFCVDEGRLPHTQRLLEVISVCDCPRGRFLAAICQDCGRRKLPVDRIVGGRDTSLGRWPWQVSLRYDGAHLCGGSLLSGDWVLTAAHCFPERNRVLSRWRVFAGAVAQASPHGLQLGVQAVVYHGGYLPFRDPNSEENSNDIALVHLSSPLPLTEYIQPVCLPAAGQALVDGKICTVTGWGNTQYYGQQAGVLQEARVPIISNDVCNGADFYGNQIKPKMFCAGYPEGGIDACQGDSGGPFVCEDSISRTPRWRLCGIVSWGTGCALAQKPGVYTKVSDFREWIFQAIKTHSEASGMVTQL
Description: as §4

tPA = tPA (UniProt P00750 36-562); assay: as above
tPA, sequence (P00750 36-562 limits assumed): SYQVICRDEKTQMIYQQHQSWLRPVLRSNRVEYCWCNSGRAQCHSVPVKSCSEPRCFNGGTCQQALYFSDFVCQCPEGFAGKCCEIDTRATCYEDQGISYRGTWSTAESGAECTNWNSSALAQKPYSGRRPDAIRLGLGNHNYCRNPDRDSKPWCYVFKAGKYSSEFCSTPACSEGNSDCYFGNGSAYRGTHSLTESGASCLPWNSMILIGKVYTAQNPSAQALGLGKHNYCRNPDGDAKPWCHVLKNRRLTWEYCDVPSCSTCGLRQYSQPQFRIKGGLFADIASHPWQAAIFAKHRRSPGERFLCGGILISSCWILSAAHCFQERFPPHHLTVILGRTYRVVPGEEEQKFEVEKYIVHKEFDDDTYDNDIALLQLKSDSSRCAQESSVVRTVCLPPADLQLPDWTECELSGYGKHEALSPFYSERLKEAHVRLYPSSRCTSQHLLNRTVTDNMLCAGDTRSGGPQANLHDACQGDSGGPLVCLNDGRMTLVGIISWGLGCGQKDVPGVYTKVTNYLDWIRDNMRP
Description: as §4

thrombin = thrombin (UniProt P00734 328-622); assay: as above
Description: as §4

| Binder | Ki [1] [nM] | binding result (mouse uPA [2]) | binding result [3] | binding result (uPA-PAI-1 complex [4]) | binding result [5] | binding result (uPA-PAI-1 complex [6]) | Ki [7] [nM] | binding result (mouse uPA [8]) | binding result (HGFA) | binding result (plasmin) | binding result (MT-SP1) | binding result (hepsin) | binding result (tPA) | binding result (thrombin) |
| --- | --- | --- | --- | --- | --- | --- | --- | --- | --- | --- | --- | --- | --- | --- |
| B1 | 20 | no binding | no binding | no binding | – | – | – | – | – | – | – | – | – | – |
| B2 | – | – | – | – | no binding (tested: highest U33 IgG concentration 651 nM) | no binding (tested: highest U33 IgG concentration 651 nM) | 10 | no binding (tested: highest U33 IgG concentration 651 nM) | no binding (tested: highest U33 IgG concentration 651 nM) | no binding (tested: highest U33 IgG concentration 651 nM) | no binding (tested: highest U33 IgG concentration 651 nM) | no binding (tested: highest U33 IgG concentration 651 nM) | no binding (tested: highest U33 IgG concentration 651 nM) | no binding (tested: highest U33 IgG concentration 651 nM) |
